Measurements as given in paper PMC5346138, “High-affinity RNA binding by a hyperthermophilic single-stranded DNA-binding protein”.
Substitutions are numbered along the chain they refer to. Names and notes keep the numbering of the source.

Legend:
[1] = molecular target: T1, SsoSSB (single-stranded DNA-binding protein) (Sulfolobus solfataricus, UniProt Q97W73 1-148); assay: ITC; apparent Kd, 50 C; text says 21U, Fig. 1 legend says poly-rA; ITC: 20 mM MES pH 6.5, 100 mM K-glutamate, 1 mM MgCl2, 50 C; PIFE: 50 mM Tris-HCl pH 8.0, 10 mM KCl; smFRET: same buffer plus Trolox and oxygen scavenger, room; details: protein: recombinant
T1 sequence: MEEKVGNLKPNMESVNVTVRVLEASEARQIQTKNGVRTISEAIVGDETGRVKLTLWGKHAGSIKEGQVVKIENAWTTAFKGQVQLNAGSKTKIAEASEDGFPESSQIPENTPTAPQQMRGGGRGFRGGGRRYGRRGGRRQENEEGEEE

[2] = molecular target: T1, SsoSSB (single-stranded DNA-binding …); assay: ITC; apparent Kd, 50 C; text says 21T, Fig. 1 legend says poly-A DNA; ITC: 20 mM MES pH 6.5, 100 mM K-glutamate, 1 mM MgCl2, 50 C; PIFE: 50 mM Tris-HCl pH 8.0, 10 mM KCl; smFRET: same buffer plus Trolox and oxygen scavenger, room; details: protein: recombinant
[3] = molecular target: T2, SsoSSB A114C-Alexa Fluor 647 (Sulfolobus solfataricus, UniProt Q97W73 1-148, A114C); assay: single-molecule FRET; 1-2 nM protein; dissociation 3.8 +/- 0.8 s-1, association 0.06 +/- 0.01 s-1; ITC: 20 mM MES pH 6.5, 100 mM K-glutamate, 1 mM MgCl2, 50 C; PIFE: 50 mM Tris-HCl pH 8.0, 10 mM KCl; smFRET: same buffer plus Trolox and oxygen scavenger, room; details: protein: recombinant; tags: Alexa Fluor 647 label; chain copies: 2; label: 5' biotin, 3' Cy3; single-stranded
T2 sequence: T1 sequence with A114C

[4] = molecular target: T1, SsoSSB (single-stranded DNA-binding …); assay: fluorescence (PIFE); 10 nM DNA, 10 mM KCl; Hill 1.6 +/- 0.5; ITC: 20 mM MES pH 6.5, 100 mM K-glutamate, 1 mM MgCl2, 50 C; PIFE: 50 mM Tris-HCl pH 8.0, 10 mM KCl; smFRET: same buffer plus Trolox and oxygen scavenger, room; details: protein: recombinant, label: 5' biotin, 3' Cy3
[5] = molecular target: T1, SsoSSB (single-stranded DNA-binding …); assay: fluorescence (PIFE); ~0.7 nM RNA; Hill 1.7 +/- 0.2; ITC: 20 mM MES pH 6.5, 100 mM K-glutamate, 1 mM MgCl2, 50 C; PIFE: 50 mM Tris-HCl pH 8.0, 10 mM KCl; smFRET: same buffer plus Trolox and oxygen scavenger, room; details: protein: recombinant, label: 5' biotin, 3' Cy3
[6] = molecular target: T2, SsoSSB A114C-Alexa Fluor 647; assay: single-molecule FRET; 1-2 nM protein; dissociation 6 +/- 1 s-1, association 0.12 +/- 0.08 s-1; ITC: 20 mM MES pH 6.5, 100 mM K-glutamate, 1 mM MgCl2, 50 C; PIFE: 50 mM Tris-HCl pH 8.0, 10 mM KCl; smFRET: same buffer plus Trolox and oxygen scavenger, room; details: protein: recombinant; tags: Alexa Fluor 647 label; label: 5' biotin, 3' Cy3; single-stranded
[7] = molecular target: T1, SsoSSB (single-stranded DNA-binding …); assay: fluorescence (PIFE); 10 nM RNA, 10 mM KCl; Hill 1.8 +/- 0.3; ITC: 20 mM MES pH 6.5, 100 mM K-glutamate, 1 mM MgCl2, 50 C; PIFE: 50 mM Tris-HCl pH 8.0, 10 mM KCl; smFRET: same buffer plus Trolox and oxygen scavenger, room; details: protein: recombinant, label: 5' biotin, 3' Cy3
SsoSSB OB domain (15N) [8] = molecular target: T3, SsoSSB OB domain (15N) (Sulfolobus solfataricus, UniProt Q97W73 1-114); assay: NMR HSQC; 1:1, 298 K; the RNA complex is only a HADDOCK model; ITC: 20 mM MES pH 6.5, 100 mM K-glutamate, 1 mM MgCl2, 50 C; PIFE: 50 mM Tris-HCl pH 8.0, 10 mM KCl; smFRET: same buffer plus Trolox and oxygen scavenger, room; details: protein: recombinant; single-stranded
T3 sequence: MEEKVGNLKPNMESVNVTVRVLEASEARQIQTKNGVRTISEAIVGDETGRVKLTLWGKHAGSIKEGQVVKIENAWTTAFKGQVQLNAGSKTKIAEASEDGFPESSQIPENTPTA

SsoSSB OB domain (15N) [9] = molecular target: T3, SsoSSB OB domain (15N); assay: NMR HSQC; 1:1, 298 K; 2MNA is an earlier structure; ITC: 20 mM MES pH 6.5, 100 mM K-glutamate, 1 mM MgCl2, 50 C; PIFE: 50 mM Tris-HCl pH 8.0, 10 mM KCl; smFRET: same buffer plus Trolox and oxygen scavenger, room; details: protein: recombinant; single-stranded
[10] = molecular target: T1, SsoSSB (single-stranded DNA-binding …); assay: FRET hairpin melting; hairpin disrupted at 20 nM SsoSSB; ITC: 20 mM MES pH 6.5, 100 mM K-glutamate, 1 mM MgCl2, 50 C; PIFE: 50 mM Tris-HCl pH 8.0, 10 mM KCl; smFRET: same buffer plus Trolox and oxygen scavenger, room; details: protein: recombinant; label: 5' Cy5, 3' Cy3; hairpin with single-nucleotide bulge

## UUUUUUUUUUUUUUUUUUUUU (ssRNA) [R21U (21U RNA)]
[1]
  Kd: 93 ± 0.4 nM

## TTTTTTTTTTTTTTTTTTTTT (ssDNA) [21T DNA]
[2]
  Kd: 95 ± 0.6 nM

## CCCCCCCCCCCC (ssDNA) [C12ssDNA]
[3]
  binding result: binds
[4]
  Kd: 8.2 ± 0.9 nM

## CCCCCCCCCCCC (ssRNA) [C12ssRNA]
[5]
  Kd: 6 ± 1 nM
[6]
  binding result: binds
[7]
  Kd: 4.2 ± 0.6 nM

## UUUUUU (ssRNA) [6U RNA]
SsoSSB OB domain (15N) [8]
  binding result: binds

## TTTTTT (ssDNA) [6T ssDNA]
SsoSSB OB domain (15N) [9]
  binding result: binds

## UGAUAAUCUCUUAUAGAAUUGAAAGU (structured_RNA) [RNA Hairpin]
[10]
  binding result: binds
